Assay results: patent publication US20220213216A1 (SOUND BIOPHARMACEUTICALS, published 2022)

Assays:
[1] = biological target: T1, human Her2 with an Fc tag (AcroBiosystem, catalog number HE2-H5253) (human, UniProt P04626 23-652); assay: BLI (Octet QKe), Her2-Fc on Protein A biosensors, 1:1 fit
T1 construct: extracellular domain; Bought protein, loaded on Protein A biosensors; also called Her2 antigen; extracellular region of the Her2 protein; not shown: Fc tag of the bought protein, not described
Experimental: (§1) Affinity assay: The OctetQKe instrument (Pall Life Sciences) was used to determine the affinity of the anti-Her2 antibody to the extracellular region of the Her2 protein. Briefly, human Her2 with an Fc tag in PBST (AcroBiosystem, catalog number HE2-H5253) was loaded onto the surface of ProteinA Capture Biosensors (ProA). Immobilization level was set at […]. Then a 60-second biosensor baseline step was performed, and the antigen/antibody association was analyzed for 180 seconds on the biosensor to test the antibody/antigen. The test molecules were then applied at a two-fold concentration gradient. The data analysis software version 8.2 (PALL/ForteBio) was used to evaluate the Octet data, and the full-fit 1:1 modal was used to determine the Kd value.
(§2) In order to detect the binding ability of the antibodies to Her2 antigen, biofilm interference technology (BLI) was used to analyze the interaction between the antibodies and Her2 antigen.

[2] = biological target: T1, human Her2 with an Fc tag …; assay: BLI (OctetQKe); Fc-tagged human Her2 loaded on Protein A biosensors, antibody in two-fold dilutions, 1:1 fit
Experimental: as §1

[3] = biological target: T1, human Her2 with an Fc tag …; assay: BLI (OctetQKe); Fc-tagged human Her2 loaded on Protein A biosensors, antibody in two-fold dilutions, 1:1 fit; column head Kdis
Experimental: as §1

[4] = biological target: T1, human Her2 with an Fc tag …; assay: BLI (Octet QKe), Her2-Fc on Protein A biosensors, 1:1 fit; single-site bivalent Bi-Bs
Experimental: as §1, §2

[5] = biological target: T1, human Her2 with an Fc tag …; assay: BLI (Octet QKe), Her2-Fc on Protein A biosensors, 1:1 fit; Bp-Bs with dual Her2 binding sites
Experimental: as §1, §2

| Binder | Kd [1] | kon [2] | koff [3] | Kd [4] | Kd [5] |
| --- | --- | --- | --- | --- | --- |
| anti-Her2-VHH1-Fc (Fc fusion, Called a single-site bivalent antibody; 1; also called single-site bivalent antibody anti-Her2 VHH1-Fc; not shown: Fc and any linker are not described) QVQLVQSGGGLVQAGGSLRLSCAASGRTFSSYAMAWFRQAPGKEREFVAAISWSGANIYVADSVKGRFTISRDNAKDTVYLQMNSLKPEDTAVYYCAVKLGFAPVEERQYDYWGQGTQVTVSS | 8.85 nM | 298000 M⁻¹ s⁻¹ | 0.00263 s⁻¹ |  |  |
| anti-Her2-VHH2-Fc (Fc fusion, Called a single-site bivalent antibody; 2; not shown: Fc and any linker are not described) QVQLQESGGGSVQAGGSLRLSCRASGFTFSSYAMSWVRQPPGKELEWVSAIWGGGDSQHYADSVKGRFTISRDNAKNTLYLQLNSLKTEDTGMYYCVKDRGPFFSGSKYVLGAADRGQGTQVTVSS | 3.02 nM | 29800 M⁻¹ s⁻¹ | 8.99e-05 s⁻¹ |  |  |
| bivalent anti-Her2 bispecific antibody Bi-Bs (anti-CD3 UCHT1 Fab with anti-Her2 VHH1 on both CL and CH1) (bispecific antibody, 3 is VL-CL-VHH1, so the heavy and light labels are probably swapped in this sentence; Expressed in E. coli and purified on Ni Sepharose) chain 1: EIVLTQSPATLSLSPGERATLSCSASSGVNYMHWYQQKPGQAPRRWIYDTSKLASGVPARFSGSGSGTSYSLTISSLEPEDFAVYYCHQRGGSYTFGGGTKLEIKRKLTVAAPSVFIFPPSDEQLKSGTASVVCLLNNFYPREAKVQWKVDNALQSGNSQESVTEQDSKDSTYSLSSTLTLSKADYEKHKVYACEVTHQGLSSPVTKSFNRGECGSQVQLVQSGGGLVQAGGSLRLSCAASGRTFSSYAMAWFRQAPGKEREFVAAISWSGANIYVADSVKGRFTISRDNAKDTVYLQMNSLKPEDTAVYYCAVKLGFAPVEERQYDYWGQGTQVTVSS chain 2: QVQLVQSGAEVKKPGASVKVSCKTSGYTFTSNWMHWVRQAPGQGLEWMGEIDPSDSYTNYNQKFKGRVTITVDKSASTAYMELSSLRSEDTAVYYCARGSNPYYYAMDYWGQGTLVTVSSKLASTKGPSVFPLAPSSKSTSGGTAALGCLVKDYFPEPVTVSWNSGALTSGVHTFPAVLQSSGLYSLSSVVTVPSSSLGTQTYICNVNHKPSNTKVDKKVGSGGGGSGGGGSGGGGSQVQLVQSGGGLVQAGGSLRLSCAASGRTFSSYAMAWFRQAPGKEREFVAAISWSGANIYVADSVKGRFTISRDNAKDTVYLQMNSLKPEDTAVYYCAVKLGFAPVEERQYDYWGQGTQVTVSS |  | 163000 M⁻¹ s⁻¹ | 0.000497 s⁻¹ | 3.06 nM |  |
| bispecific antibody Bp-Bs with dual Her2 binding sites (anti-CD3 UCHT1 Fab with anti-Her2 VHH1 on CL and anti-Her2 VHH2 on CH1) (bispecific antibody, VHHs are linked by (GGGGS)3; Expressed in E. coli and purified on Ni Sepharose; About 79 kDa) light: EIVLTQSPATLSLSPGERATLSCSASSGVNYMHWYQQKPGQAPRRWIYDTSKLASGVPARFSGSGSGTSYSLTISSLEPEDFAVYYCHQRGGSYTFGGGTKLEIKRKLTVAAPSVFIFPPSDEQLKSGTASVVCLLNNFYPREAKVQWKVDNALQSGNSQESVTEQDSKDSTYSLSSTLTLSKADYEKHKVYACEVTHQGLSSPVTKSFNRGECGSQVQLVQSGGGLVQAGGSLRLSCAASGRTFSSYAMAWFRQAPGKEREFVAAISWSGANIYVADSVKGRFTISRDNAKDTVYLQMNSLKPEDTAVYYCAVKLGFAPVEERQYDYWGQGTQVTVSS heavy: QVQLVQSGAEVKKPGASVKVSCKTSGYTFTSNWMHWVRQAPGQGLEWMGEIDPSDSYTNYNQKFKGRVTITVDKSASTAYMELSSLRSEDTAVYYCARGSNPYYYAMDYWGQGTLVTVSSASTKGPSVFPLAPSSKSTSGGTAALGCLVKDYFPEPVTVSWNSGALTSGVHTFPAVLQSSGLYSLSSVVTVPSSSLGTQTYICNVNHKPSNTKVDKKVEPKSCDKTHTCAAGGGGSGGGGSGGGGSQVQLQESGGGSVQAGGSLRLSCRASGFTFSSYAMSWVRQPPGKELEWVSAIWGGGDSQHYADSVKGRFTISRDNAKNTLYLQLNSLKTEDTGMYYCVKDRGPFFSGSKYVLGAADRGQGTQVTVSS |  | 215000 M⁻¹ s⁻¹ | 2.33e-05 s⁻¹ |  | 0.109 nM |
